This passage reports Kd, koff and kon results from article PMC6168492.

pKd: −log10 of the molar value.

In test [1] the target is wild-type mouse serum albumin with C-terminal GST (mouse). The test can be described thus: SPR; albumin immobilised (200 RU) on CM5 chip by amine coupling, serial dilutions of monomeric His-tagged FcRn injected; pH 5.5, 0.005% Tween20, 30 µl/min, 25 °C; 1:1 Langmuir model.
Test [2] deals with HSA-mDI (HSA with mouse DI, residues 1-190 from MSA) with C-terminal GST (mouse | human). The test can be described thus: SPR; Biacore T200; albumin variants amine-coupled on CM5 (~200 or 500 RU); monomeric His-tagged hFcRn or mFcRn injected in serial dilutions; phosphate buffer (177 mM phosphate, 85 mM NaCl, 0.05% Tween 20) pH 5.5, 30 µl/min, 25 °C; 1:1 Langmuir model.
Test [3] concerns the target MSA-hLoopI + II (MSA N83T/L87M/S111N/P114R) with C-terminal GST (mouse). The test is described as above.
Test [4] addresses HSA K573P with C-terminal GST (human). The test is described as above.
Test [5] concerns the target MSA P573K with C-terminal GST (mouse). The test is described as above.
The target in test [6] is HSA-mLoopI + II (HSA T83N/M87L/N111S/R114P) with C-terminal GST (human). Described as above.
Test [7] has as its target DIII of MSA (residues 381-584) with C-terminal GST (mouse). The test is described as above.
Test [8] has as its target MSA-hDI (MSA with human DI, residues 1-190 from HSA) with C-terminal GST (human | mouse). Described as above.
Test [9] concerns the target HSA N111S with C-terminal GST (human). The test is described as above.
Test [10] has as its target HSA R114P with C-terminal GST (human). The test is described as above.
The target of test [11] is DIII of HSA (residues 381-585) with C-terminal GST (human). The test is described as above.

Chain of wild-type mouse serum albumin with C-terminal GST (mouse) (P07724 25-608): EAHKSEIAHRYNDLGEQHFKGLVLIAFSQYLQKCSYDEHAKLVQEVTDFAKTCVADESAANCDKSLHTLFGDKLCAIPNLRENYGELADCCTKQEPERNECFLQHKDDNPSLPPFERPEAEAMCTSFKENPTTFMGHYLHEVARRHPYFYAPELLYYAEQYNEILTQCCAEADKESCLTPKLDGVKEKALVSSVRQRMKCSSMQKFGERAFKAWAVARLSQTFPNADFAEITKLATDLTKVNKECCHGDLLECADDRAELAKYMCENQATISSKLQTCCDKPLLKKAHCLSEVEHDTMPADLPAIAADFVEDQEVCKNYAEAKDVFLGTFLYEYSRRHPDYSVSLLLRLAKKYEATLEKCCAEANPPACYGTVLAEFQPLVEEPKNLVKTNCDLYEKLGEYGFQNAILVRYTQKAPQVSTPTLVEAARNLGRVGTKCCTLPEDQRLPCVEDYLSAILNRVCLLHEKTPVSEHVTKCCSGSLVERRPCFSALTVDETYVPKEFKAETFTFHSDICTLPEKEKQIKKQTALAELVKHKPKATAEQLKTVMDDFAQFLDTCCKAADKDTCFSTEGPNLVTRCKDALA

In [1], “soluble mouse neonatal Fc receptor (mFcRn), His-tagged, monomeric (from UniProt Q61559 22-365; P01887 21-119)” had a pKd of 6.49, a koff of 0.0123 s⁻¹ and a kon of 38000 M⁻¹ s⁻¹.
For “soluble monomeric His-tagged human neonatal Fc receptor (hFcRn) (from UniProt P55899 24-297; P61769 21-119)”, the pKd was 5.84 in test [2]; 6.84 in test [3]; 7.65 in [4]; 5.44 in [5]; 6.08 in test [6]; 6.93 in test [7]. For the same substance, the pKd is 7.15 in test [8], 6.79 in test [9], 6.26 in [10] and 5.50 in test [11]. In addition, the off-rate constant (koff) in [2] amounted to 0.0202 s⁻¹; in [3] it was 0.0074 s⁻¹; in test [4] it was 0.0006 s⁻¹; in test [5] it was 0.0734 s⁻¹; in test [6] it was 0.0214 s⁻¹; in test [7] it was 0.0057 s⁻¹. In addition, the koff in [8] worked out at 0.0047 s⁻¹; in test [9], 0.006 s⁻¹; in [10], 0.0122 s⁻¹; in test [11] it was 0.0349 s⁻¹. The kon in [2] was found to be 14000 M⁻¹ s⁻¹; in [3], 51000 M⁻¹ s⁻¹; in test [4] it was 27000 M⁻¹ s⁻¹; in test [5], 20000 M⁻¹ s⁻¹; in test [6] it was 26000 M⁻¹ s⁻¹; in test [7], 48000 M⁻¹ s⁻¹. In addition, the kon in test [8] was 67000 M⁻¹ s⁻¹; in [9] it was 37000 M⁻¹ s⁻¹; in [10] it was 22000 M⁻¹ s⁻¹; in test [11], 11000 M⁻¹ s⁻¹.
As to “soluble monomeric His-tagged mouse neonatal Fc receptor (mFcRn) (from UniProt Q61559 22-297; P01887 21-119)”, the pKd is 6.43 in [3], 5.91 in test [4], 6.21 in test [7] and 6.15 in [8]. The koff in [3] stood at 0.0075 s⁻¹; in [4] it was 0.0197 s⁻¹; in [7], 0.0093 s⁻¹; in test [8] it was 0.0148 s⁻¹. For the same substance, the kon in test [3] stood at 20000 M⁻¹ s⁻¹; in [4] it was 16000 M⁻¹ s⁻¹; in test [7] it was 15000 M⁻¹ s⁻¹; in test [8], 21000 M⁻¹ s⁻¹.
